Drawing on patent US7427671 (US Dept. of Health and Human Services, dated 2008), this text covers Kd for 1 molecule.

By Kd is commonly meant a measure of binding affinity in units of concentration.

The experiment addresses T1, human type α platelet derived growth factor receptor (T11 gene product) (human, UniProt P16234 24-1089).
T1 construct: In western blots and immunoprecipitations it came from cell lysates; also called type α PDGF-R; α PDGFR
As to the kind of experiment: Scatchard analysis of PDGF-BB binding to 32D-αR transfectants.

T1 sequence (P16234 24-1089): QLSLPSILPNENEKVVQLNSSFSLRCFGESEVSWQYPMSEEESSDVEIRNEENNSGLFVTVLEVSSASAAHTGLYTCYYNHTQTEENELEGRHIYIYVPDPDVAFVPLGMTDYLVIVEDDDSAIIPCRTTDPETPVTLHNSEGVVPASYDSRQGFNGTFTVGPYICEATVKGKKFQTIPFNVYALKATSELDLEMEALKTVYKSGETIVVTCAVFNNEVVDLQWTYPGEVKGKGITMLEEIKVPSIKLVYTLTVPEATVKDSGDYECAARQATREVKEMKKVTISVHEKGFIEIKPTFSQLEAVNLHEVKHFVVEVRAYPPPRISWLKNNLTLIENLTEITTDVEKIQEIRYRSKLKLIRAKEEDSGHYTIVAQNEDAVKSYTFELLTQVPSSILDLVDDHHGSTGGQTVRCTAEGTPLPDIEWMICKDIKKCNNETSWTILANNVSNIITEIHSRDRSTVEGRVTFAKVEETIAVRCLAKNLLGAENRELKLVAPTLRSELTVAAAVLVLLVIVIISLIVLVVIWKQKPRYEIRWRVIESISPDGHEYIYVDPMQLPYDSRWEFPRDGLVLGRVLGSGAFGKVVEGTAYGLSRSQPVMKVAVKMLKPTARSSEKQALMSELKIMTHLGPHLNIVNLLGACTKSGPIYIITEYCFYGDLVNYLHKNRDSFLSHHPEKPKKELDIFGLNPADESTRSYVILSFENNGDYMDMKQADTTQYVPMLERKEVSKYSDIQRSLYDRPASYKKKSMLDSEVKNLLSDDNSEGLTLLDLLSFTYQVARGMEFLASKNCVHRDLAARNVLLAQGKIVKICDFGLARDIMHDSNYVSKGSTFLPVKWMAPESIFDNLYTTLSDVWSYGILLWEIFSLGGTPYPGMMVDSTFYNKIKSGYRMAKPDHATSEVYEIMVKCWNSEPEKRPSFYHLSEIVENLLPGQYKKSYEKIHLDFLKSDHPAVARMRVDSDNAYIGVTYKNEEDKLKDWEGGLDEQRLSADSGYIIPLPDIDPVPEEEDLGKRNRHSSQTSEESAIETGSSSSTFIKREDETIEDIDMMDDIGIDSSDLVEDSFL

B1: recombinant PDGF-BB (ligand, UniProt P01127 82-190, looked up)
chain: SLGSLTIAEPAMIAECKTRTEVFEISRRLIDRTNANFLVWPPCVEVQRCSGCCNNRNVQCRPTQVQLRPVQVRKIEIVRKKPIFKKATVTLEDHLACKCETVAAARPVT
notes: Homodimer of B chains; also called BB homodimer
The molecule B1 returned a Kd of 0.4 nM.
